In the supplement of paper PMC11246515:
± gives the standard deviation of the averaged measurements.

Experiment: total protein half-life in vivo (active degradation + dilution); higher = more stable protein
[1] = E. coli NCM3722 delta-hslV, growth: N-lim chemostat, doubling time 6 h
[2] = E. coli NCM3722 delta-lon, growth: N-lim chemostat, doubling time 6 h
[3] = E. coli NCM3722 delta-smpB, growth: N-lim chemostat, doubling time 6 h
[4] = wild type E. coli NCM3722, growth: C-lim chemostat, doubling time 3 h
[5] = wild type E. coli NCM3722, growth: C-lim chemostat, doubling time 6 h
[6] = wild type E. coli NCM3722, growth: C-lim chemostat, doubling time 12 h
[7] = wild type E. coli NCM3722, growth: N-lim chemostat, doubling time 6 h
[8] = wild type E. coli NCM3722, growth: N-lim chemostat, doubling time 12 h
[9] = wild type E. coli NCM3722, growth: P-lim chemostat, doubling time 6 h
[10] = wild type E. coli NCM3722, growth: P-lim chemostat, doubling time 12 h
[11] = E. coli NCM3722 delta-clpP delta-lon delta-hslV, growth: N-lim chemostat, doubling time 6 h
[12] = E. coli NCM3722 delta-clpP, growth: N-lim chemostat, doubling time 6 h

Row | Sequence | total protein half-life in vivo [1] [h] | total protein half-life in vivo [2] [h] | total protein half-life in vivo [3] [h] | total protein half-life in vivo [4] [h] | total protein half-life in vivo [5] [h] | total protein half-life in vivo [6] [h] | total protein half-life in vivo [7] [h] | total protein half-life in vivo [8] [h] | total protein half-life in vivo [9] [h] | total protein half-life in vivo [10] [h] | total protein half-life in vivo [11] [h] | total protein half-life in vivo [12] [h]
1 | MPKLRLIGLTLLALSATAVSHAEETRYVSDELNTWVRSGPGDHYRLVGTVNAGEEVTLLQTDANTNYAQVKDSSGRTAWIPLKQLSTEPSLRSRVPDLENQVKTLTDKLTNIDNTWNQRTAEMQQKVAQSDSVINGLKEENQKLKNELIVAQKKVDAASVQLDDKQRTIIMQWFMYGGGVLGLGLLLGLVLPHLIPSRKRKDRWMN [P0ADT8] | 6.56 ± 0.2 | 6.43 ± 0.12 | 5.94 ± 0.49 | 3.03 ± 0.052 | 5.84 ± 0.24 | 11.1 ± 0.11 | 5.83 ± 0.15 | 11.8 ± 0.99 | 5.51 ± 0.2 | 12.5 ± 0.39 |  | 
2 | MSLTELTGNPRHDQLLMLIAERGYMNIDELANLLDVSTQTVRRDIRKLSEQGLITRHHGGAGRASSVVNTAFEQREVSQTEEKKAIAEAVADYIPDGSTIFITIGTTVEHVARALLNHNHLRIITNSLRVAHILYHNPRFEVMVPGGTLRSHNSGIIGPSAASFVADFRADYLVTSVGAIESDGALMEFDVNEANVVKTMMAHARNILLVADHTKYHASAAVEIGNVAQVTALFTDELPPAALKSRLQDSQIEIILPQEDA | 5.17 ± 0.35 |  | 4.98 ± 0.86 | 2.8 ± 0.12 | 5.113 ± 0.0071 | 10.7 ± 0.88 | 4.89 ± 1 | 8.59 | 4.9 ± 0.25 | 8.679 ± 0.03 | 5.99 ± 0.15 | 4.97 ± 0.17
3 | MTVRVAINGFGRIGRNVVRALYESGRRAEITVVAINELADAAGMAHLLKYDTSHGRFAWEVRQERDQLFVGDDAIRVLHERSLQSLPWRELGVDVVLDCTGVYGSREHGEAHIAAGAKKVLFSHPGSNDLDATVVYGVNQDQLRAEHRIVSNASCTTNCIIPVIKLLDDAYGIESGTVTTIHSAMHDQQVIDAYHPDLRRTRAASQSIIPVDTKLAAGITRFFPQFNDRFEAIAVRVPTINVTAIDLSVTVKKPVKANEVNLLLQKAAQGAFHGIVDYTELPLVSVDFNHDPHSAIVDGTQTRVSGAHLIKTLVWCDNEWGFANRMLDTTLAMATVAFR [P0A9B6] | 4.07 ± 1.2 | 4.77 ± 1.6 | 3.65 ± 0.18 | 2.85 ± 0.086 | 5.08 ± 0.25 | 8.49 ± 0.63 | 3.49 ± 0.19 | 5.94 ± 0.99 | 5.48 ± 0.15 | 10 ± 0.75 | 4.55 ± 0.44 | 5.54 ± 2.7
4 | MANWLNQLQSLLGQSSSSTSSSADQGLVKLLVPGALGGLAGLLVANKSARKLLTKYGTNALLVGGGAVAGTVLWNKYKDKIRAAHQDEPQFGAQSTPLDERTARLILALVFAAKSDGHIDAKERAAIDQQLRGAGVEEQGRVLIEQAIEQPLDPQRLATGVRNEEEALEIYFLSCAAIDIDHFMERSYLNALGDALKIPQDVRDGIERDLEQQKRTLAE | 3.74 ± 0.12 | 3.56 ± 0.13 | 4.47 ± 0.86 | 2.22 ± 0.19 | 4.49 ± 0.37 | 9.68 ± 3.4 | 4.91 ± 1.6 | 8.34 ± 0.38 | 3.34 ± 0.58 | 5.708 ± 0.041 | 5.293 ± 0.0053 | 
5 | MKKLALILFMGTLVSFYADAGRKPCSGSKGGISHCTAGGKFVCNDGSISASKKTCTN [P0ACW4] |  |  |  | 0.862 | 4.49 | 4.67 |  |  |  |  |  | 
6 | MPKPGILKSKSMFCVIYRSSKRDQTYLYVEKKDDFSRVPEELMKGFGQPQLAMILPLDGRKKLVNADIEKVKQALTEQGYYLQLPPPPEDLLKQHLSVMGQKTDDTNK [P0AB43] | 3.56 ± 0.33 | 4.78 ± 0.62 | 3.88 ± 0.55 | 2.71 ± 0.15 | 4.59 ± 0.29 | 8.2 ± 0.32 | 3.5 | 5.72 ± 0.24 | 4.48 ± 0.068 | 8.702 ± 0.013 | 4.94 ± 0.22 | 4.28 ± 0.62
7 | MDKQSLHETAKRLALELPFVELCWPFGPEFDVFKIGGKIFMLSSELRGVPFINLKSDPQKSLLNQQIYPSIKPGYHMNKKHWISVYPGEEISEALLRDLINDSWNLVVDGLAKRDQKRVRPG [P0AAT2] | 5.97 ± 0.5 | 6.9 ± 0.29 | 5.28 ± 0.71 | 3.35 ± 0.7 | 5.17 ± 0.11 | 11.2 ± 0.26 | 4.78 ± 0.46 | 10.1 ± 2.1 | 4.72 ± 1.1 | 10.6 ± 0.46 | 5.54 ± 0.35 | 6.23
